Assay results: article doi:10.1101/2021.09.12.459962 (bioRxiv, 2021)

Molecular target: the molecule itself
Assay: AUC; sedimentation equilibrium of UDS1-His at 4 µM, 6000 to 9000 rpm, single-species model; monomers to dimer

B1: UDS1-His6 (natural protein, Aspergillus nidulans, UniProt Q5B1I5 1-941, looked up)
chain: MNGFDFRSSQSSYGDPRHFSDASYGVPQPPPTKVLLDGYRDALGPANAEKSLYNSANPTSHPRRSIPPSANDPVAMYLLTETAMGDSVNYEILSVEEVEGLKKELRVLSNRMNAAKRKLALELKLRDAAMSLSRLHHKEEHDVDGSGRNEPNTDKTNEELVHINRKCEELSMDIWYSERKVQEIQKRLLEHTAGVLQLTHKGLKKNSKNGMPHTPESLSSSNTVDDFDDRSLYKASDPLDGPETYETRAPPPDNLAHDNSMQETERKLESMSSRLRDMLLQLDPDSEFSQIPQPSTSGDSFEPSAMIDAHLRYIENGISALGSLPKADMASQSLDPVSEQQLVEMRTQLLSIMENPGLPRAQTLPTAPDPTDSDLAKHLTFLSVGINGLESRVEKLLEQKSILTTQIQQQRELNSKSDAERDAKIADLIEQLAHLRKELELAEREGQQSKEDHDLTLKELEDVRRELLESRETHSSRDLGNSKNEAQQHAEAEIARLQSVIQEIQQEKDEHCEAHRRAEAEIDRLQAVIHQIQQEKDEHREAHERAEAETTRLQTIVEEVQQEKDEQHEAHGRAVAEVTRLQDIIQKIEQEKIERHEADERAEAEIVRLRDTIREIQQEKEEHHEARVRLEGEVARLQGVIGQLQESAESRESAEQQVAQLEETIHQIRHDADIRIKEATDSRAQADAKIAQLEGAMNEVRESLESQLKEATEARNNAEENSTRLQKELTELERDVVRAQTELTMVKAELDGAYGTRAQRAAEAAADPALFHELDELKARNFEMAEELAALKAGKPGSGDVHNRVETLERELRETVDDYEAMTKASIEFEKERERFESMIDSLRDRCEQLETQLNEERISWMGANNSASSMGRDGPYETTSTMVLKNEFKKMMRDTRAENMKILKAEQEERRKLEAILRNLKREQANLSGKSNISRTVTAS
notes: UDS1, product of AN5595 of Aspergillus nidulans, 941 residues; UDS1 cDNA cloned as NheI/NotI in pET21b; Mr 106,857 Da; Dimer by sedimentation equilibrium; also called purified UDS1; bacterially expressed UDS1; source: E. coli BLB21 pRIL, purified (Ni-Sepharose, Superdex gel filtration)
stoichiometry N: 2
